Experimental data reported in PMC4963197, “Phosphorylation acts positively and negatively to regulate MRTF-A subcellular localisation and activity” (eLife, 2016).

Molecular target: G-actin (UniProt P68135)
Experiment: size exclusion chromatography

other: actins (apparent stoichiometry of G-actin binding): 2.2
Substance: MRTF-A(67–199) L74A; L78A
